Measurements as given in patent US20240317834A1, “COMPOSITIONS AND METHODS FOR NEUROLOGICAL DISEASES” (CODA BIOTHERAPEUTICS, INC., priority 2020, published 2024).

System: Lenti-X 293T cells
Experiment: YFP fluorescence quenching anion reporter plate reader assay of engineered receptors stimulated with acetylcholine or a non-native ligand
Assay type: cell-based
Conditions: for percent quench of YFP fluorescence, 30 nM TC-6683: TC-6683 30 nM; for percent quench of YFP fluorescence, 300 nM TC-6683: TC-6683 300 nM; for percent quench of YFP fluorescence, 3 uM TC-6683: TC-6683 3 uM; for percent quench of YFP fluorescence, 30 uM TC-6683: TC-6683 30 uM; for percent quench of YFP fluorescence, 100 uM TC-6683: TC-6683 100 uM; for percent quench of YFP fluorescence, 10 uM ach: acetylcholine 10 uM; for percent quench of YFP fluorescence, 100 uM ach: acetylcholine 100 uM; for percent quench of YFP fluorescence, 1 mM ach: acetylcholine 1 mM; for percent quench of YFP fluorescence, 3 mM ach: acetylcholine 3 mM
In short: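 YFP quench was followed for about 1 min 43 s after ligand delivered in iodide-based ECS, pH 7.2. Values are end-of-read fluorescence (last 10 s) divided by the pre-ligand baseline (15 s). Cells were LX293T, transfected with receptor DNA a day before the assay.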

B1: CODA952: engineered chimeric LGIC receptor, Y140I in SEQ ID NO: 33 (protein)
chain: MRCSPGGVWLALAASLLHVSLQGEFQRKLYKELVKNYNPLERPVANDSQPLTVYFSLSLLQIMDVDEKNQVLTTNIWLQMSWTDHYLQWNVSEYPGVKTVRFPDGQIWKPDILLYNSADERFDATFHTNVLVNSSGHCQILPPGIFKSSCPMDLKNFPMDVQTCKLKFGSWSYGGWSLDLQMQEADISGYIPNGEWDLVGIPGKRSERFYECCKEPYPDVTFTVTMRRRMGYYLIQMYIPSLLIVILSWISFWINMDAAPARVGLGITTVLTMTTQSSGSRASLPKVSYVKAIDIWMAVCLLFVFSALLEYAAVNFVSRQHKELLRFRRKRRHHKSPMLNLFQEDEAGEGRFNFSAYGMGPACLQAKDGISVKGANNSNTTNPPPAPSKSPEEMRKLFIQRAKKIDKISRIGFPMAFLIFNMFYWIIYKIVRREDVHNQ
modifications: synthetic sequence of chimeric LGIC
YFP fluorescence quenching using CNL001 (1 nM CNL001, first column): 0.368%
YFP fluorescence quenching using CNL001 (1 nM CNL001, second column): −1.976%
YFP fluorescence quenching using TC-5619/Bradanicline (3 nM brd): −2.45%
YFP fluorescence quenching using Varenicline (3 nM var, first column): −22.522
YFP fluorescence quenching using Varenicline (3 nM var, second column): −18.173
YFP fluorescence quenching using CNL001 (10 nM CNL001, first column): −3.923%
YFP fluorescence quenching using CNL001 (10 nM CNL001, second column): 4.348%
YFP fluorescence quenching using TC-5619/Bradanicline (30 nM brd): 66.97%
YFP fluorescence quenching using Facinicline (30 nM fac): −8.83
YFP fluorescence quenching using Varenicline (30 nM var, first column): −15.306
YFP fluorescence quenching using Varenicline (30 nM var, second column): −12.832
YFP fluorescence quenching using CNL001 (50 nM CNL001, first column): 74.107%
YFP fluorescence quenching using CNL001 (50 nM CNL001, second column): 75.866%
YFP fluorescence quenching using ABT-126 (50 nM abt): −12.34%
YFP fluorescence quenching using CNL001 (100 nM CNL001, first column): 80.323%
YFP fluorescence quenching using CNL001 (100 nM CNL001, second column): 81.996%
YFP fluorescence quenching using CNL002 (100 nM CNL002): 32.58%
YFP fluorescence quenching using ABT-126 (100 nM abt): −11.57%
YFP fluorescence quenching using AZD-0328 (100 nM azd0328): −12.96%
YFP fluorescence quenching using ABT-126 (300 nM abt): −5.21%
YFP fluorescence quenching using AZD-0328 (300 nM azd0328): −13.21%
YFP fluorescence quenching using TC-5619/Bradanicline (300 nM brd): 78.48%
YFP fluorescence quenching using Facinicline (300 nM fac): 51.6
YFP fluorescence quenching using Varenicline (300 nM var, first column): −14.671
YFP fluorescence quenching using Varenicline (300 nM var, second column): −17.016
YFP fluorescence quenching using Varenicline (500 nM var, first column): −16.713
YFP fluorescence quenching using Varenicline (500 nM var, second column): −18.893
YFP fluorescence quenching using CNL001 (1 uM CNL001, first column): 83.489%
YFP fluorescence quenching using CNL001 (1 uM CNL001, second column): 82.208%
YFP fluorescence quenching using CNL002 (1 uM CNL002): 69.08%
YFP fluorescence quenching using ABT-126 (1 uM abt): 3.93%
YFP fluorescence quenching using TC-6987 (1 uM tc6987): 6.03
YFP fluorescence quenching using Varenicline (1 uM var, first column): −15.847
YFP fluorescence quenching using Varenicline (1 uM var, second column): −16.236
YFP fluorescence quenching using TC-6987 (10 uM tc6987): 2.25
YFP fluorescence quenching using CNL002 (30 uM CNL002): 73.28%
YFP fluorescence quenching using AZD-0328 (30 uM azd0328): 68.5%
YFP fluorescence quenching using Facinicline (30 uM fac): 71.01
YFP fluorescence quenching using TC-6987 (500 uM tc6987): −0.24
percent quench of YFP fluorescence, 30 nM TC-6683: −27.7%
percent quench of YFP fluorescence, 300 nM TC-6683: −26.87%
percent quench of YFP fluorescence, 3 uM TC-6683: −31.2%
percent quench of YFP fluorescence, 30 uM TC-6683: −33.12%
percent quench of YFP fluorescence, 100 uM TC-6683: −24.67%
percent quench of YFP fluorescence, 10 uM ach: −1.97%
percent quench of YFP fluorescence, 100 uM ach: 2.79%
percent quench of YFP fluorescence, 1 mM ach: 58.81%
percent quench of YFP fluorescence, 3 mM ach: 66.9%

B2: CODA965: engineered chimeric LGIC receptor, Y140C in SEQ ID NO: 33 (protein)
chain: MRCSPGGVWLALAASLLHVSLQGEFQRKLYKELVKNYNPLERPVANDSQPLTVYFSLSLLQIMDVDEKNQVLTTNIWLQMSWTDHYLQWNVSEYPGVKTVRFPDGQIWKPDILLYNSADERFDATFHTNVLVNSSGHCQCLPPGIFKSSCPMDLKNFPMDVQTCKLKFGSWSYGGWSLDLQMQEADISGYIPNGEWDLVGIPGKRSERFYECCKEPYPDVTFTVTMRRRMGYYLIQMYIPSLLIVILSWISFWINMDAAPARVGLGITTVLTMTTQSSGSRASLPKVSYVKAIDIWMAVCLLFVFSALLEYAAVNFVSRQHKELLRFRRKRRHHKSPMLNLFQEDEAGEGRFNFSAYGMGPACLQAKDGISVKGANNSNTTNPPPAPSKSPEEMRKLFIQRAKKIDKISRIGFPMAFLIFNMFYWIIYKIVRREDVHNQ
modifications: synthetic sequence of chimeric LGIC
YFP fluorescence quenching using CNL001 (1 nM CNL001, first column): −12.765%
YFP fluorescence quenching using CNL001 (1 nM CNL001, second column): −12.608%
YFP fluorescence quenching using TC-5619/Bradanicline (3 nM brd): −18.49%
YFP fluorescence quenching using Varenicline (3 nM var, first column): −17.716
YFP fluorescence quenching using Varenicline (3 nM var, second column): −23.019
YFP fluorescence quenching using CNL001 (10 nM CNL001, first column): 68.134%
YFP fluorescence quenching using CNL001 (10 nM CNL001, second column): 71.394%
YFP fluorescence quenching using TC-5619/Bradanicline (30 nM brd): 22.66%
YFP fluorescence quenching using Facinicline (30 nM fac): −12.29
YFP fluorescence quenching using Varenicline (30 nM var, first column): −14.993
YFP fluorescence quenching using Varenicline (30 nM var, second column): −12.182
YFP fluorescence quenching using CNL001 (50 nM CNL001, first column): 80.298%
YFP fluorescence quenching using CNL001 (50 nM CNL001, second column): 82.159%
YFP fluorescence quenching using ABT-126 (50 nM abt): −10.75%
YFP fluorescence quenching using CNL001 (100 nM CNL001, first column): 82.404%
YFP fluorescence quenching using CNL001 (100 nM CNL001, second column): 82.14%
YFP fluorescence quenching using CNL002 (100 nM CNL002): 43.24%
YFP fluorescence quenching using ABT-126 (100 nM abt): −4.11%
YFP fluorescence quenching using AZD-0328 (100 nM azd0328): −16.69%
YFP fluorescence quenching using ABT-126 (300 nM abt): 18.93%
YFP fluorescence quenching using AZD-0328 (300 nM azd0328): 1.3%
YFP fluorescence quenching using TC-5619/Bradanicline (300 nM brd): 38.02%
YFP fluorescence quenching using Facinicline (300 nM fac): 20.11
YFP fluorescence quenching using Varenicline (300 nM var, first column): −11.731
YFP fluorescence quenching using Varenicline (300 nM var, second column): −10.13
YFP fluorescence quenching using Varenicline (500 nM var, first column): −12.518
YFP fluorescence quenching using Varenicline (500 nM var, second column): −15.043
YFP fluorescence quenching using CNL001 (1 uM CNL001, first column): 82.34%
YFP fluorescence quenching using CNL001 (1 uM CNL001, second column): 80.649%
YFP fluorescence quenching using CNL002 (1 uM CNL002): 42.72%
YFP fluorescence quenching using ABT-126 (1 uM abt): 52.64%
YFP fluorescence quenching using TC-6987 (1 uM tc6987): 2.73
YFP fluorescence quenching using Varenicline (1 uM var, first column): −13.385
YFP fluorescence quenching using Varenicline (1 uM var, second column): −17.022
YFP fluorescence quenching using TC-6987 (10 uM tc6987): 30.37
YFP fluorescence quenching using CNL002 (30 uM CNL002): 51.43%
YFP fluorescence quenching using AZD-0328 (30 uM azd0328): 21.78%
YFP fluorescence quenching using Facinicline (30 uM fac): 37.62
YFP fluorescence quenching using TC-6987 (500 uM tc6987): 33.07
percent quench of YFP fluorescence, 30 nM TC-6683: −8.21%
percent quench of YFP fluorescence, 300 nM TC-6683: −16.37%
percent quench of YFP fluorescence, 3 uM TC-6683: −19.48%
percent quench of YFP fluorescence, 30 uM TC-6683: −24.32%
percent quench of YFP fluorescence, 100 uM TC-6683: −24.99%
percent quench of YFP fluorescence, 10 uM ach: −21.71%
percent quench of YFP fluorescence, 100 uM ach: 3.49%
percent quench of YFP fluorescence, 1 mM ach: 63.34%
percent quench of YFP fluorescence, 3 mM ach: 51.92%
